B1: ALG.APV-187 (bispecific antibody)
chain: EVQLLESGGGLVQPGGSLRLSCAASGFTFSHGSMYWVRQAPGKGLEWVSSISSGSGSTYYADSVKGRFTISHDNSKNTLYLQMNSLRAEDTAVYYCARSSYYGSYYSIDYWGQGTLVTVSSGGGGSGGGGSGGGGSGGGGSDIQMTQSPSSLSASVGDRVTITCRASQSISSYLNWYQQKPGKAPKLLIYAASSLQSGVPSRFSGSGSGTDFTLTISSLQPEDFATYYCQQYYDNLPTFGQGTKLEIKSSEPKSSDKTHTCPPCPAPEAAGAPSVFLFPPKPKDTLMISRTPEVTCVVVDVSHEDPEVKFNWYVDGVEVHNAKTKPREEQYNSTYRVVSVLTVLHQDWLNGKEYKCAVSNKALPAPIEKTISKAKGQPREPQVYTLPPSRDELTKNQVSLTCLVKGFYPSDIAVEWESNGQPENNYKTTPPVLDSDGSFFLYSKLTVDKSRWQQGNVFSCSVMHEALHNHYTQKSLSLSPGSGGGGSGGGGSGGGGSPSEVQLLESGGGLVQPGGSLRLSCAASGFTFSSYAMSWVRQAPGKCLEWVSAISGSGGSTYYADSVKGRFTISRDNSKNTLYLQMNSLRAEDTAVYYCARYYGGYYSAWMDYWGQGTLVTVSSGGGGSGGGGSGGGGSGGGGSDIQMTQSPSSLSASVGDRVTITCRASQSISSFLNWYQQKPGKAPKLLIYAASSLQSGVPSRFSGSGSGTDFTLTISSLQPEDSATYYCQQTYGYLHTFGCGTKLEIKR
notes: Optimized ADAPTIR scFv-Fc-scFv homodimer with stabilizing disulfide in the 1210 scFv
B2: ALG.APV-210 (bispecific antibody)
chain: EVQLLESGGGLVQPGGSLRLSCAASGFTFSHGSMYWVRQAPGKGLEWVSSISSGSGSTYYADSVKGRFTISHDNSKNTLYLQMNSLRAEDTAVYYCARSSYYGSYYSIDYWGQGTLVTVSSGGGGSGGGGSGGGGSGGGGSDIQMTQSPSSLSASVGDRVTITCRASQSISSYLNWYQQKPGKAPKLLIYAASSLQSGVPSRFSGSGSGTDFTLTISSLQPEDFATYYCQQYYDNLPTFGQGTKLEIKEPKSSDKTHTCPPCPAPEAAGAPSVFLFPPKPKDTLMISRTPEVTCVVVDVSHEDPEVKFNWYVDGVEVHNAKTKPREEQYNSTYRVVSVLTVLHQDWLNGKEYKCAVSNKALPAPIEKTISKAKGQPREPQVYTLPPSRDELTKNQVSLTCLVKGFYPSDIAVEWESNGQPENNYKTTPPVLDSDGSFFLYSKLTVDKSRWQQGNVFSCSVMHEALHNHYTQKSLSLSPGSGGGGSGGGGSGGGGSPSEVQLLESGGGLVQPGGSLRLSCAASGFTFSSYAMSWVRQAPGKCLEWVSAISGSGGSTYYADSVKGRFTISRDNSKNTLYLQMNSLRAEDTAVYYCARYYGGYYSAWMDYWGQGTLVTVSSGGGGSGGGGSGGGGSGGGGSDIQMTQSPSSLSASVGDRVTITCRASQSISSFLNWYQQKPGKAPKLLIYAASSLQSGVPSRFSGSGSGTDFTLTISSLQPEDSATYYCQQTYGYLHTFGCGTKLEIKR
notes: Optimized ADAPTIR scFv-Fc-scFv homodimer with stabilizing disulfide in the 1210 scFv; also called 5T4-CD137 bispecific antibody

Legend:
human CD137 on cells [1] = biological target: T1, human CD137 on cells (human, UniProt Q07011 24-255); test: flow cytometry, CHO-K1/human CD137 cells, PE anti-human IgG Fc secondary, MFI (mean)
T1 construct: also called 4-1BB; TNFRSF9 (CHO-K1/human CD137 cells)
T1 sequence (Q07011 24-255 limits assumed): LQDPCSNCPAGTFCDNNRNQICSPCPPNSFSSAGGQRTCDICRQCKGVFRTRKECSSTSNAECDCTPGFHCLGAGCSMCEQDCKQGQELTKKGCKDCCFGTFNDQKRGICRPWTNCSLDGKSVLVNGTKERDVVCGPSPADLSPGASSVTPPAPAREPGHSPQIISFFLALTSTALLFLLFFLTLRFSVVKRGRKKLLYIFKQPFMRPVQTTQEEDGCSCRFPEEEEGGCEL
Method: Binding studies on CHO-K1 cells lines expressing CD137 were performed by standard flow cytometry-based staining procedures. CHO-K1 cells (generated by Alligator) were transfected with human or cynomolgus macaque CD137. A typical experiment would label approximately 100,000 cells per well, in 96-well plates, with a range of 100 nM to 0.05 nM binding molecule in 50 μL of saline buffer with 2% BSA and 2 mM EDTA, for 30 min on ice, followed by washes and incubation with PE-labeled secondary antibody, goat anti-human IgG Fcγ ([…]), for 20 minutes on ice. Signal from bound molecules was detected using a LSR-II™ or a Symphony A3 flow cytometer (BD Biosciences) and analyzed by FlowJo flow cytometry analysis software. […] Nonlinear regression analysis to determine EC₅₀ values was performed in GraphPad Prism 6® graphing and statistics software.

cynomolgus 5T4 on cells = biological target: T2, cynomolgus 5T4 on cells (cynomolgus macaque, UniProt Q4R8Y9 35-420); test: flow cytometry, CHO-K1/cynomolgus 5T4 transfectants, labelled anti-human IgG secondary, MFI (mean)
T2 construct: whole, on cells; also called CHO-K1/cynomolgus 5T4 transfectants
T2 sequence (looked up): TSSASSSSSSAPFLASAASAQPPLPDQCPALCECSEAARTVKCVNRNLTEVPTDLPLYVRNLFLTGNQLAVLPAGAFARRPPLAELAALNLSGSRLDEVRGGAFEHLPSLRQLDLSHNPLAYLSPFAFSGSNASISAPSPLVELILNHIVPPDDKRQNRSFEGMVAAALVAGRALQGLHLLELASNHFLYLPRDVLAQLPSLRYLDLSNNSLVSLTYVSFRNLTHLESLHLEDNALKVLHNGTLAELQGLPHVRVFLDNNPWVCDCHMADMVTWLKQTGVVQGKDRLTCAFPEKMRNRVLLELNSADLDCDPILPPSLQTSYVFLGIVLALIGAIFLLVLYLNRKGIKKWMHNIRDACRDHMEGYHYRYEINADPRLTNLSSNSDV
Method: Binding studies were performed by standard flow cytometry-based staining procedures two cell lines expressing 5T4:CHO-K1 cells (obtained from Alligator) transduced with human or cynomolgus macaque 5T4 and SKOV-3 human ovarian adenocarcinoma cells which express (human) 5T4. All labeling and washes were performed in U-bottom 96-well plates in saline buffer with 0.1% BSA and 2 mM EDTA. Cell were plated at approximately 100,000 cells per well and incubated with a range of 100 nM to 0.05 nM concentrations of test molecules in […], for 30 minutes on ice. Cells were washed three times then incubated for another 30 min on ice with fluorescently-labeled secondary polyclonal antibody, F(ab′)² goat anti-human IgG (Jackson ImmunoResearch Laboratories). The cells were then washed twice and the samples acquired in a BD LSRII or a Symphony A3 flow cytometer. The sample files were analyzed using FlowJo software; the mean fluorescence intensity (MFI-mean) or median fluorescence intensity (MFI-median) of the live population of cells in each well was calculated after gating on live cells (forward vs side scatter). Nonlinear regression analysis to determine EC₅₀ values was performed in GraphPad Prism 6® graphing and statistics software.

[2] = biological target: T3, recombinant human 5T4 extracellular domain (ECD) (human); test: SPR (Biacore T200, 25 C), bispecific captured on anti-human IgG, monomeric ECD injected, 1:1 fit
T3 construct: Monomeric, made in HEK-293; also called Hu 5T4; monomeric 5T4 ectodomain
T3 chain: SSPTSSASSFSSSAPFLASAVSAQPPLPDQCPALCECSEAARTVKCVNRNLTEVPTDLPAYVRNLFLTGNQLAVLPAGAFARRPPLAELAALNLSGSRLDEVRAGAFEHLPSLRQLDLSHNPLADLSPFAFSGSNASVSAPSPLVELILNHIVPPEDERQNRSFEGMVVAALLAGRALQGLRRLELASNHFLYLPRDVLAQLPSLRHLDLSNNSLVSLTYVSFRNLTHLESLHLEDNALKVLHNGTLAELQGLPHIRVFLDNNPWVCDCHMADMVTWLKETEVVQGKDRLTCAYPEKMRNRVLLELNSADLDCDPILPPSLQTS
Method: (§1) Goat anti-human IgG F(ab′)2 fragment (Jackson ImmunoResearch) at 20 μg/mL in 10 mM sodium acetate (pH 4.5) was immobilized at a density of 2000 response units (RU) onto the flow cell of a CM5 research-grade sensor chip (GE) by standard amine coupling chemistry. Each bispecific variant at 200 nM in HBS-EP+ buffer was captured in the flow cell with the immobilized anti-human IgG at a flow rate of 50 μL/min for 60 sec to reach ˜500 RU response, leaving one flow cell surface unmodified as the reference. Following a 30 sec stabilization period, four different concentrations of each ECD (0, 20, 60, and 180 nM) were injected at 50 μL/min for either 120 sec followed by a 240 sec dissociation period (for 5T4) or 90 sec followed by a 180 sec dissociation period (for 4-1BB). Regeneration was achieved by duplicate injections of 10 mM glycine (pH 1.5) at a flow rate of 50 μL/min for 30 sec followed by HBS-EP+ buffer stabilization for 1 min.
(§2) Sensorgrams obtained from kinetic SPR measurements were analyzed by the double subtraction method. The signal from the reference flow cell was subtracted from the analyte binding response obtained from flow cells with immobilized or captured ligands. Buffer reference responses were then averaged from multiple injections. The averaged buffer reference responses were then subtracted from analyte binding responses, and the final double-referenced data were analyzed with Biacore T200 Evaluation software (2.0, GE), globally fitting data to derive kinetic parameters. All sensorgrams were fitted using a simple one-to-one binding model.

[3] = biological target: T4, recombinant human CD137 extracellular domain (ECD) (human); test: as above
T4 construct: Monomeric, made in HEK-293; also called Hu CD137; human 4-1BB ECD
T4 sequence (chain, as listed by the source limits assumed): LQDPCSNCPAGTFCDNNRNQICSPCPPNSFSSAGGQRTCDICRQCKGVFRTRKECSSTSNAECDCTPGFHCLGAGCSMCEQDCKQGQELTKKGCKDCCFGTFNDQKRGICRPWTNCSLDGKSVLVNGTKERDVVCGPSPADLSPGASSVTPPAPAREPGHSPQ
Method: as §1, §2

human CD137 on cells [4] = biological target: T1, human CD137 on cells; test: cell-based or functional assay

| Binder | EC50 (human CD137 on cells [1]) [nM] | Maximum MFI (human CD137 on cells [1]) | EC50 (cynomolgus 5T4 on cells) [nM] | Maximum MFI (cynomolgus 5T4 on cells) | Kd [2] [nM] | koff [2] [s⁻¹] | kon [2] [M⁻¹ s⁻¹] | Kd [3] [nM] | koff [3] [s⁻¹] | kon [3] [M⁻¹ s⁻¹] | CD137 reporter assay with HCC1143 cells, EC50 against ALG.APV-004 (human CD137 on cells [4]) [fold lower EC50] | CD137 reporter assay with HCC1143 cells, EC50 against ALG.APV-006 and ALG.APV-004 (human CD137 on cells [4]) [fold lower EC50] |
| --- | --- | --- | --- | --- | --- | --- | --- | --- | --- | --- | --- | --- |
| B1 | 0.41 | 8720 | 8.5 | 26000 | 35 | 0.00072 | 21000 | 73 | 0.027 | 370000 | 10 | ≤ 6 |
| B2 | 0.56 | 8970 | 7.2 | 23800 | 79 | 0.0012 | 15000 | 59 | 0.033 | 550000 | 10 | – |
